Test results reported in PMC10866687 (2024).

B1: cortactin-GFP (wild type), in 293T cells [not stated] / FLAG-MAP1B-LC1 (wild type) [not stated (human or rat cDNA cloned)] (parent complex)
chain 1: not shown
chain 2: DRSPSPRHPDVSMVDPEALAIEQNLGKALKKDLKEKTKTKKPGTKTKSSSPVKKSDGKSKPLAASPKPAGLKESSDKVSRVASPKKKESVEKAAKPTTTPEVKAARGEEKDKETKNAANASASKSAKTATAGPGTTKTTKSSAVPPGLPVYLDLCYIPNHSNSKNVDVEFFKRVRSSYYVVSGNDPAAEEPSRAVLDALLEGKAQWGSNMQVTLIPTHDSEVMREWYQETHEKQQDLNIMVLASSSTVVMQDESFPACKIEL

Variants of: B1
Experiment: coimmunoprecipitation (IP FLAG, immunoblot quantification); n = 4 experiments; parent: 100; read off a plot

Row | Variant | percent of parent
1 | chain 2 K41A, chain 2 P42A | ~76 % of WT
2 | chain 2 K95A, chain 2 P96A | ~110 % of WT
3 | chain 2 P6A, chain 2 R7A | ~78 % of WT
4 | chain 2 P66A, chain 2 K67A, chain 2 P68A | ~93 % of WT
5 | chain 2 K60A, chain 2 P61A | ~120 % of WT
6 | chain 2 P145A, chain 2 P146A | ~36 % of WT
